Where two headings read alike, the source gives them in different places.
Tests used:
[1] = molecular target: human PD-L1 on CHO-K1 cells overexpressing human PD-L1 (human) (UniProt Q9NZQ7); experiment: flow cytometry on CHO-K1 cells overexpressing human PD-L1 (CHO-K1/hPD-L1); isotype control, EC50 given as N.A.
[2] = molecular target: cynomolgus monkey PD-L1 on CHO-K1 cells overexpressing cynomolgus monkey PD-L1 (cynomolgus monkey) (UniProt G7PSE7); experiment: flow cytometry on CHO-K1 cells overexpressing cynomolgus monkey PD-L1 (CHO-K1/cynoPD-L1); isotype control, EC50 given as N.A.
Sequence of cynomolgus monkey PD-L1 on CHO-K1 cells overexpressing cynomolgus monkey PD-L1 (cynomolgus monkey) (G7PSE7 entry or part of it limits assumed): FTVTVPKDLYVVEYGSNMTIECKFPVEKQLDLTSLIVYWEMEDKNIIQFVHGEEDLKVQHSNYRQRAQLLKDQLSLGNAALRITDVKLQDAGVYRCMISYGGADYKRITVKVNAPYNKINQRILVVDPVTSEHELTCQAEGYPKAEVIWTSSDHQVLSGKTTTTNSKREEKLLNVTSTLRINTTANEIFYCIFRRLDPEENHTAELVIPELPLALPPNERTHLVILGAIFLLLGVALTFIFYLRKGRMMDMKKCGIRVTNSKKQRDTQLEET

[3] = molecular target: human PD-L1 on CHO-K1 cells overexpressing human PD-L1 (human) (UniProt Q9NZQ7); experiment: flow cytometry on CHO-K1 cells overexpressing human PD-L1 (CHO-K1/hPD-L1); isotype control, fit value printed for a curve that stays at the baseline [continued) D]
[4] = molecular target: cynomolgus monkey PD-L1 on CHO-K1 cells overexpressing cynomolgus monkey PD-L1 (cynomolgus monkey) (UniProt G7PSE7); experiment: flow cytometry on CHO-K1 cells overexpressing cynomolgus monkey PD-L1 (CHO-K1/cynoPD-L1); isotype control, EC50 given as N.A.; remark: listed apart in the source
[5] = molecular target: cynomolgus monkey PD-L1 on CHO-K1 cells overexpressing cynomolgus monkey PD-L1 (cynomolgus monkey) (UniProt G7PSE7); experiment: as above; remark: listed apart in the source
[6] = molecular target: human PD-L1 on CHO-K1 cells overexpressing human PD-L1 (human) (UniProt Q9NZQ7); experiment: flow cytometry on CHO-K1 cells overexpressing human PD-L1 (CHO-K1/hPD-L1); isotype control [continued) D]

Sequence of human PD-L1 on CHO-K1 cells overexpressing human PD-L1 (human) (Q9NZQ7 19-290): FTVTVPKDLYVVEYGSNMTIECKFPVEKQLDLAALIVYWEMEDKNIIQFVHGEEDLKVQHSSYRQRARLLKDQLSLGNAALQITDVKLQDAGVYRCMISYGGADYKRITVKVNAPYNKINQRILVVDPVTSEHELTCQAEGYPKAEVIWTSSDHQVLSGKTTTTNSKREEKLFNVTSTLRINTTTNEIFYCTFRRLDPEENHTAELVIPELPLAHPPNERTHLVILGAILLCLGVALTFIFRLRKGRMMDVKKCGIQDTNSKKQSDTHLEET

Maximum MFI [1]: 86 MFI
Maximum MFI [2]: 125 MFI
EC50 [3]: 75.9 nM
Maximum MFI [4]: 112 MFI
Maximum MFI [5]: 123 MFI
Maximum MFI [6]: 595 MFI
Substance: hIgG1 (antibody)

Source: patent US20240269276A1
